As a reminder, the stoichiometry N is the number of molecules, sites or subunits per partner or assembly.

Holding throughout (assay): native gel or EMSA
Experiment [1] addresses GluA1 AMPA receptor subunit, wild type (rat, flip) (rat).
The target in experiment [2] is GluA1 lacking the extracellular domains (GluA1-ΔECD) (rat).
The next experiment concerns the target GluA1(G816A) (rat).
Experiment [3] has as its target GluA1(G816A)-TARP γ-2 tandem (rat).
Experiment [4] deals with GluA1-TARP γ-2 tandem (rat).
Experiment [5] concerns the target GluA2(R), edited form of the GluA2 AMPA receptor subunit (rat, flip) (rat).

Chain of GluA2(R), edited form of the GluA2 AMPA receptor subunit (rat, flip) (P19491 22-883): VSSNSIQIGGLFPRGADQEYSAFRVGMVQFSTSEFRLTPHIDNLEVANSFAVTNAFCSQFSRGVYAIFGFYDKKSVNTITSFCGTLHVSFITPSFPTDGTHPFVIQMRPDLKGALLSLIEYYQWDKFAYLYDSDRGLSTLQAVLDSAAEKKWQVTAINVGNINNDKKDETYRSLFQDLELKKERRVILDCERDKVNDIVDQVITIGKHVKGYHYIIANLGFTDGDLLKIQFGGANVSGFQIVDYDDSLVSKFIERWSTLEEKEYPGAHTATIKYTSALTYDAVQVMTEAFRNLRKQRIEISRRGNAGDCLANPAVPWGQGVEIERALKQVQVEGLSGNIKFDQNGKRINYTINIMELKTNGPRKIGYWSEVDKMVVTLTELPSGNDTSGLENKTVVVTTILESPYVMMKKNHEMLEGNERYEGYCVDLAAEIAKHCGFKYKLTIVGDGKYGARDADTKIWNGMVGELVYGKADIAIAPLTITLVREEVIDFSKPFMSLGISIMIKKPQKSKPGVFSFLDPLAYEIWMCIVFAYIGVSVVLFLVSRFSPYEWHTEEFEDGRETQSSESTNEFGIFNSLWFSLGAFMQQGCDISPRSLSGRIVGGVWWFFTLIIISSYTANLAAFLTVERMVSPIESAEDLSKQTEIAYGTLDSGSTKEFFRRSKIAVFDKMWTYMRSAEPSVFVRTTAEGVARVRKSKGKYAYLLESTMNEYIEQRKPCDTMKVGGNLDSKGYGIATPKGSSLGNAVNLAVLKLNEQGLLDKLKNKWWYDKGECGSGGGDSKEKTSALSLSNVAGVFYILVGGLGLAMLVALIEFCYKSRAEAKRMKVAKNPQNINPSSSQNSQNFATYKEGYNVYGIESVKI

As to “GluA1 AMPA receptor subunit, wild type (rat, flip)”, the stoichiometry N in experiment [1] is 4.
Regarding “GluA1 lacking the extracellular domains (GluA1-ΔECD) (domain or fragment)”, the stoichiometry N in experiment [2] came out at 4.
GluA1(G816A) (receptor) showed a tetramer formation with GluA1(G816A) (rat) of 50%.
Regarding GluA1(G816A)-TARP γ-2 tandem, the stoichiometry N in experiment [3] was 4.
GluA1-TARP γ-2 tandem registered a stoichiometry N in experiment [4] of 4.
“GluA2(R), edited form of the GluA2 AMPA receptor subunit (rat, flip)” came in with a stoichiometry N in experiment [5] of 4.

The record behind these values is paper doi:10.1101/2023.02.07.527516.
